Key:
Format in all cases: cell-based
CHO and MCF-7 cells = assay: PKC translocation by Western blot, soluble to particulate fraction, after PMA; conditions: 10 minutes PMA, 100 nM in CHO, 10 nM in MCF-7
Procedure: To assess PKC distribution the different cell fractions were run on SDS PAGE, transferred for Western blot analysis and probed with anti-εPKC V5 antibodies. Lysates of overexpressed GFP-εPKC were diluted to approximately 0.2 μg/well. At this concentration endogenous εPKC was not detected. All other methods for this Example were performed as described, for example, in Example 4. It was also confirmed that the Wt and ΨεRACK εPKC mutants were sensitive to activation by phorbol ester and that they translocated from the soluble to the particulate fraction of the cell upon activation. Translocation of the εPKC mutants was determined using two different cell lines, MCF-7 and CHO. [CHO cells were stimulated for 10 minutes with 100 nM PMA (FIG. 6C). MCF-7 cells were stimulated with 10 nM PMA for 10 minutes (FIG. 6D, 6E), since stimulation of MCF-7 cells with higher doses of PMA caused a detachment of the cells]. After treatment with PMA, cells were fractionated into soluble and particulate fractions, and GFP-εPKC was detected and quantified by Western blot analysis using anti-εPKC. […] This is not due to PKC degradation; the total amount of εPKC was not changed upon activation. Therefore, GFP-εPKC ΨεRACK mutants were catalytically active and responded to activation by PMA by translocating from the soluble to the particulate fraction of the cell.

CHO cells [1] = assay: Real-time confocal imaging of PMA-induced εPKC translocation with mathematical modeling; conditions: for time after PMA stimulation at which the enzyme was found at the cell periphery: YFP-εPKC D(86)A and CFP-εPKC Wt co-transfected in the same cell; for C3 / C5 / C1: constant of bi-exponential fit; for C1: level of εPKC in the cytosol at steady state; for k − 2: rate of detachment from the membrane; for k1 = C5: rate of εPKC opening in the cytosol
Procedure: (§1) CHO cells were grown on glass coverslips, and serum-starved as described in Example 4. For each experiment, cells were transferred to a commercially available metal coverslip holder (Molecular Probes) in which the coverslip formed the bottom of a 1 ml bath. The media was then replaced with extracellular buffer (120 mM NaCl, 5 mM KCl, 1.5 mM CaCl2, 1.5 mM MgCl2, 20 mM HEPES and 30 mM glucose). Cells were stimulated by either PMA (100 nM), or with ATP (1 mM) in extracellular buffer. Fluorescence images of GFP-tagged constructs were obtained using the 488 nm excitation line of a laser scanning confocal microscope (Pascal, Zeiss) and emission was collected through a 505-550 nm band pass filter. Cells were imaged on the stage of an inverted microscope (Axiovert 100M) using a 40× Zeiss Plan-apo oil immersion objective with 1.2 numerical aperture (NA). For dual color imaging of CFP and YFP fusion proteins, a spinning disk Nipkow confocal microscope was used. Cells were viewed using an inverted Olympus IX70 microscope with a 40× oil immersion Olympus objective (1.35NA) and images were acquired with a CCD camera (Hamamatsu) and 2×2 pixel binning. CFP was excited with the 442 nm laser line of a helium-cadmium laser (Kimmon) whereas YFP was imaged with the 514 nm line of an argon ion laser (Melles-Griot). To selectively photobleach YFP labeled proteins in local regions of the cytoplasm for FRAP experiments, the 514 nm line of an Enterprise laser (Coherent) at maximal power (˜400 mW) was used. For these experiments, a 60× oil immersion objective was used (1.4NA). Under these conditions, and by placing an iris in the beam path, it was possible to bleach 80% of the YFP fluorescence in 500 ms in an area of the cytosol measuring approximately 35 um2. Real time confocal images were acquired every 10-15 seconds for 20 minutes for experiments utilizing PMA, and every 5 seconds for a total duration of 3 minutes in the case of cells stimulated with ATP. Reagents were added to the cell chamber after the fifth image in each time series. […] All images were acquired at room temperature. Images were exported as 12 or 16 bit files and changes in fluorescence intensity were measured using MetaMorph® data analysis software (Universal Imaging Corp.). To monitor the translocation of PKC, a small region of interest was selected in the cytosol of each cell and fluorescence intensity values graphed against time after subtraction of background values and normalized so that the initial fluorescence was 100%. Averages of 10-15 cells from three independent experiments were used. To determine statistical significance, a 1 tail type 2 T-test (Microsoft excel) was used.
Mathematical modeling was obtained from data of cells expressing similar levels of the different εPKC ΨεRACK mutants. Non-linear least squares curve fitting analysis was performed using the EViews software (QMS) and differential equation analysis was performed using Berkeley Madonna™. All other methods for this Example were performed as described, for example, in Examples 4 and 6.
Fluorescence time courses were analyzed by a non-linear regression analysis with single and biexponential equations (1 and 2) as previously done by Nalefski and Newton Nalefski, E. A. & Newton, A. C., Biochemistry 40:13216-13229 (2001)], where I(t) is the concentration of observed molecules in the cytosol at time (t), and C1-5 are constants. I(t)=C1+C2e^(−C3(t)) 1. I(t)=C1+C2e^(−C3(t))+C4e^(−C5(t)) 2. Residual error graphs obtained using single exponential equations (FIG. 8A) and using biexponential equations (FIG. 8B) for the D(86)A εPKC mutant translocation process is shown in FIGS. 8A-8D. […] This process can be described as follows:
The value of C1 corresponds to the level of εPKC in the cytosol at steady state. It was next determined whether the hypothesis that the values obtained for C1 and C3 of D(86)A and Wt εPKCs are statistically equivalent. […]

CHO cells [2] = assay: Real-time confocal imaging of ATP-induced εPKC translocation; conditions: 1 mM ATP; for time after stimulation at which translocation was apparent: GFP fusion
Procedure: as §1
It was next determined whether differences in translocation rates of the different εPKCs were also observed when translocation was stimulated via receptor signaling rather than by PMA. ATP has been previously used to activate PKC in CHO cells by stimulating purinergic G protein-coupled receptors [Maasch, C. et al., FASEB J. 14:1653-1663 (2000)]. All methods for this Example were performed as described, for example, in Examples 4, 6 and 7.

[3] = rate of closing in the cytosol, assumed negligible
[4] = rate of εPKC binding to the membrane, calculated with k-1 negligible

Row | Molecule | rate of translocation (decrease of fluorescence in the cytoplasm) (CHO cells [1]; 100 nM PMA, GFP fusion) | time at which translocation to the cell periphery became apparent (CHO cells [1]; 100 nM PMA, GFP fusion) | time after PMA stimulation at which the enzyme was found at the cell periphery (CHO cells [1]; 100 nM PMA) | (k2 + k − 2) = C3 (CHO cells [1]; calculated with k-1 negligible) | k − 2/(k2 + k − 2) = C1/100 (CHO cells [1]; calculated with k-1 negligible) | C3 (CHO cells [1]; 100 nM PMA) | C5 (CHO cells [1]; 100 nM PMA) | C1 (CHO cells [1]; 100 nM PMA) | k − 1 (CHO cells [1]; [3]) | k − 2 (CHO cells [1]; calculated with k-1 negligible) | k2 (CHO cells [1]; [4]) | k1 = C5 (CHO cells [1]; calculated with k-1 negligible) | time after stimulation at which translocation was apparent (CHO cells [2]) | other results
1 | D(86)A: εPKC mutant wherein D at position 86 of ΨεRACK on εPKC is substituted with an A (protein) MVVFNGLLKIKICEAVSLKPTAWSLRHAVGPRPATFLLDPYIALNVDDSRIGQTATKQKTNSPAWHDEFVTDVCNGRKIELAVFHAAPIGYDDFVANCTIQFEELLQNGSRHFEDWIDLEPEGRVYVIIDLSGSSGEAPKDNEERVFRERMRPRKRQGAVRRRVHQVNGHKFMATYLRQPTYCSHCRDFIWGVIGKQGYQCQVCTCVVHKRCHELIITKCAGLKKQETPDQVGSQRFSVNMPHKFGIHNYKVPTFCDHCGSLLWGLLRQGLQCKVCKMNVHRRCETNVAPNCGVDARGIAKVLADLGVTPDKITNSGQRRKKLIAGAESPQPASGGSPSEEDRSKSAPTSPCDQEIKELENNIRKALSFDNRGEEHRAASSPDGQLMSPGENGEVRQGQAKRLGLDEFNFIKVLGKGSFGKVMLAELKGKDEVYAVKVLKKDVILQDDDVDCTMTEKRILALARKHPYLTQLYCCFQTKDRLFFVMEYVNGGDLMFQIQRSRKFDEPRSRFYAAEVTSALMFLHQHGVIYRDLKLDNILLDAEGHCKLADFGMCKEGILNGVTTTTFCGTPDYIAPEILQELEYGPSVDWWALGVLMYEMMAGQPPFEADNEDDLFESILHDDVLYPVWLSKEAVSILKAFMTKNPHKRLGCVASQNGEDAIKQHPFFKEIDWVLLEQKKIKPPFKPRIKTKRDVNNFDQDFTREEPVLTLVDEAIVKQINQEEFKGFSYFGEDLMP | faster rate | within one minute | 1.5 min | 0.016 ± 0.001 | 0.306 ± 0.002 | 0.016 ± 0.001 | 0.040 ± 0.007 | 30.59 ± 0.286 | ~0 | 0.005 ± 0.0004 | 0.011 ± 0.003 | 0.040 ± 0.007 | 10 s | increase of εPKC in the particulate fraction compared with D(86)N or Wt (CHO and MCF-7 cells): greater increase
2 | D(86)N: εPKC mutant wherein D at position 86 of ΨεRACK in εPKC is substituted with an N (protein) MVVFNGLLKIKICEAVSLKPTAWSLRHAVGPRPATFLLDPYIALNVDDSRIGQTATKQKTNSPAWHDEFVTDVCNGRKIELAVFHNAPIGYDDFVANCTIQFEELLQNGSRHFEDWIDLEPEGRVYVIIDLSGSSGEAPKDNEERVFRERMRPRKRQGAVRRRVHQVNGHKFMATYLRQPTYCSHCRDFIWGVIGKQGYQCQVCTCVVHKRCHELIITKCAGLKKQETPDQVGSQRFSVNMPHKFGIHNYKVPTFCDHCGSLLWGLLRQGLQCKVCKMNVHRRCETNVAPNCGVDARGIAKVLADLGVTPDKITNSGQRRKKLIAGAESPQPASGGSPSEEDRSKSAPTSPCDQEIKELENNIRKALSFDNRGEEHRAASSPDGQLMSPGENGEVRQGQAKRLGLDEFNFIKVLGKGSFGKVMLAELKGKDEVYAVKVLKKDVILQDDDVDCTMTEKRILALARKHPYLTQLYCCFQTKDRLFFVMEYVNGGDLMFQIQRSRKFDEPRSRFYAAEVTSALMFLHQHGVIYRDLKLDNILLDAEGHCKLADFGMCKEGILNGVTTTTFCGTPDYIAPEILQELEYGPSVDWWALGVLMYEMMAGQPPFEADNEDDLFESILHDDVLYPVWLSKEAVSILKAFMTKNPHKRLGCVASQNGEDAIKQHPFFKEIDWVLLEQKKIKPPFKPRIKTKRDVNNFDQDFTREEPVLTLVDEAIVKQINQEEFKGFSYFGEDLMP | – | 5 min | – | – | – | 0.010 ± 0.0003 | 0.034 ± 0.004 | 38.38 ± 0.254 | – | – | – | – | 40 s | steady state level of fluorescence in the cytoplasm (CHO cells [1]; 100 nM PMA, GFP fusion): higher level; k2 (CHO cells [1]; rate of binding to the membrane, simulations using differential equations): 0.01138; k − 1 (CHO cells [1]; rate of closing, simulations using differential equations): 0.005; k − 2 (CHO cells [1]; simulations using differential equations): 0.0052; k1 (CHO cells [1]; rate of opening, simulations using differential equations, k1 = C5 not valid): 0.0135; steady state level compared with D(86)A or Wt (CHO cells [2]): significantly higher levels; translocation rate in comparison to wild type (CHO cells [2]): slower translocation rate
3 | Wt: wild type εPKC, human construct (protein) MVVFNGLLKIKICEAVSLKPTAWSLRHAVGPRPATFLLDPYIALNVDDSRIGQTATKQKTNSPAWHDEFVTDVCNGRKIELAVFHDAPIGYDDFVANCTIQFEELLQNGSRHFEDWIDLEPEGRVYVIIDLSGSSGEAPKDNEERVFRERMRPRKRQGAVRRRVHQVNGHKFMATYLRQPTYCSHCRDFIWGVIGKQGYQCQVCTCVVHKRCHELIITKCAGLKKQETPDQVGSQRFSVNMPHKFGIHNYKVPTFCDHCGSLLWGLLRQGLQCKVCKMNVHRRCETNVAPNCGVDARGIAKVLADLGVTPDKITNSGQRRKKLIAGAESPQPASGGSPSEEDRSKSAPTSPCDQEIKELENNIRKALSFDNRGEEHRAASSPDGQLMSPGENGEVRQGQAKRLGLDEFNFIKVLGKGSFGKVMLAELKGKDEVYAVKVLKKDVILQDDDVDCTMTEKRILALARKHPYLTQLYCCFQTKDRLFFVMEYVNGGDLMFQIQRSRKFDEPRSRFYAAEVTSALMFLHQHGVIYRDLKLDNILLDAEGHCKLADFGMCKEGILNGVTTTTFCGTPDYIAPEILQELEYGPSVDWWALGVLMYEMMAGQPPFEADNEDDLFESILHDDVLYPVWLSKEAVSILKAFMTKNPHKRLGCVASQNGEDAIKQHPFFKEIDWVLLEQKKIKPPFKPRIKTKRDVNNFDQDFTREEPVLTLVDEAIVKQINQEEFKGFSYFGEDLMP | slower rate | 2 to 3 min | > 10 min | 0.016 ± 0.004 | 0.305 ± 0.010 | 0.016 ± 0.004 | 0.009 ± 0.001 | 30.46 ± 0.991 | ~0 | 0.005 ± 0.0011 | 0.011 ± 0.002 | 0.009 ± 0.001 | 10 s | –
